According to patent publication US20230381333A1 (HANMI PHARM, published 2023):
Bridge positions count the residues as written; N and C are the ends. Square brackets hold non-standard residues; d marks the D form. Ends that are not written are not given here. * marks the point of attachment. Acetyl(2-(4-imidazolyl)) = O=C(Cc1c[nH]cn1)*; Aib = CC(C)(N)C(=O)O

T1: human GIP receptor (human, UniProt P48546 22-466)
T1 sequence (looked up): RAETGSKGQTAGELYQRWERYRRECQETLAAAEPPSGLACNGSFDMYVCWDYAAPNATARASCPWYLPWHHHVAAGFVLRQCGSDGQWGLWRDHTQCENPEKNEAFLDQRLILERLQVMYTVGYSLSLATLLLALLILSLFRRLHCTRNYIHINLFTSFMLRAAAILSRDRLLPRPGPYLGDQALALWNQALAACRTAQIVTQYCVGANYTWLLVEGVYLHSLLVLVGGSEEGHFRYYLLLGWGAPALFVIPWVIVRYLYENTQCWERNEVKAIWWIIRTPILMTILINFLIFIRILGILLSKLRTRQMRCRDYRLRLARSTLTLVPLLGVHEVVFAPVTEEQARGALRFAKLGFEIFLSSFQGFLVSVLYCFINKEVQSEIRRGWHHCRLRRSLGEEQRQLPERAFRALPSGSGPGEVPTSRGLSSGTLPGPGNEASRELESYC


What was measured:
Assay in all cases: cell-based or functional assay
human GLP-1 receptor = human GLP-1 receptor (human, UniProt P43220 24-463)
human GIP receptor = molecular target: T1, human GIP receptor
human GCG receptor = human GCG receptor (human, UniProt P47871 26-477)
Sequence of human GCG receptor (P47871 26-477): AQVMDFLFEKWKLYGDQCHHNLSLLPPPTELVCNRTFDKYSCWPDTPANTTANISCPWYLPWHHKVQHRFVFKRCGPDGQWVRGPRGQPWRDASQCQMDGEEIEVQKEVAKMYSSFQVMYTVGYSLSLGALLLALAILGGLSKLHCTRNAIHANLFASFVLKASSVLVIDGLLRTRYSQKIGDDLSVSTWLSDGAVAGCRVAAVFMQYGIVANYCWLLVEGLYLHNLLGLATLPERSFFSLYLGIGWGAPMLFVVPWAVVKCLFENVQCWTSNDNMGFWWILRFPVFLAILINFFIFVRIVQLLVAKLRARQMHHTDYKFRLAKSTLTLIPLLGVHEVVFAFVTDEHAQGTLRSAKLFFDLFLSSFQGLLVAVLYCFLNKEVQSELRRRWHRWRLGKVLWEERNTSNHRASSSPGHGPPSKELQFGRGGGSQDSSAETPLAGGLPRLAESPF

Binder	In vitro activity compared to native-type peptide (%), vs GLP-1 (human GLP-1 receptor)	In vitro activity compared to native-type peptide (%), vs GIP (human GIP receptor)	In vitro activity compared to native-type peptide (%), vs Glucagon (human GCG receptor)
[Acetyl(2-(4-imidazolyl))][Aib]QGTFTSDYSICMDEIHQKDFVNWLLNTK (bridge 16-20) [triple agonist of SEQ ID NO: 49]	29.8%	3.3%	< 0.1%
H[Aib]QGTFTSDYSKYLCEKRQKEFVQWLLNGGPSSGAPPPSG (bridge 16-20) [triple agonist of SEQ ID NO: 36]	37.4%	0.2%	0.39%
{Acetyl(2-(4-imidazolyl))}-[Aib]QGTFTSDYSICMDEKHQKDFVNWLLNTK (bridge 15-19) [triple agonist of SEQ ID NO: 59]	40.3%	4%	< 0.1%
HGQGTFTSDCSKQLDGQAAQEFVAWLLAGGPSSGAPPPS [triple agonist of SEQ ID NO: 44]	1.3%	< 0.1%	< 0.1%
HGQGTFTSDCSKYMDGQAAQDFVAWLLAGGPSSGAPPPS [triple agonist of SEQ ID NO: 45]	6.6%	< 0.1%	< 0.1%
HGQGTFTSDCSKYLDEQHAQEFVAWLLAGGPSSGAPPPS [triple agonist of SEQ ID NO: 46]	1.4%	< 0.1%	< 0.1%
HGQGTFTSDCSKYLDGQRAQEFVAWLLAGGPSSGAPPPS [triple agonist of SEQ ID NO: 47]	2.4%	< 0.1%	< 0.1%
HGQGTFTSDCSKYLDGQRAQDFVNWLLAGGPSSGAPPPS [triple agonist of SEQ ID NO: 48]	1.5%	< 0.1%	< 0.1%
H[Aib]QGTFTSDYSKYLDGQHAQCFVAWLLAGGGPSSGAPPPS [triple agonist of SEQ ID NO: 39]	13.9%	< 0.1%	0.53%
H[Aib]QGTFTSDYSKYLDEKRQKEFVNWLLAQC (also: ring formation (underlined residues), positions not given here) [triple agonist of SEQ ID NO: 56]	57.9%	0.8%	4.9%
H[Aib]QGTFTSDYSKYLDEKRQKEFVQWLLNTKC (bridge 16-20) [triple agonist of SEQ ID NO: 58]	39.1%	0.2%	2.6%
H[Aib]QGTFTSDYSIAMDEIHQKDFVNWLLNTC (bridge 16-20) [triple agonist of SEQ ID NO: 57]	11.7%	0.3%	< 0.1%
H[Aib]QGTFTSDVSSYLDGQAAKEFVAWLLKGC [triple agonist of SEQ ID NO: 6]	17%	< 0.1%	< 0.1%
Y[Aib]QGTFTSDYSKYLDEKRAKEFVQWLLDHHCSSGQPPPS (bridge 16-20) [triple agonist of SEQ ID NO: 43]	12.6%	3.7%	88.4%
H[Aib]QGTFTSDYSKYLDEKRQKEFVQWLLNTC (bridge 16-20) [triple agonist of SEQ ID NO: 51]	14.4%	0.1%	2%
H[Aib]QGTFTSDKSKYLDERACQDFVQWLLDGGPSSGAPPPS [triple agonist of SEQ ID NO: 40]	75.2%	< 0.1%	< 0.1%
H[Aib]QGTFTSDYSKYLDECRQKEFVQWLLNGGPSSGAPPPSG (bridge 16-20) [triple agonist of SEQ ID NO: 37]	236%	2.2%	6.21%
H[Aib]QGTFTSDVSSYLLGQQQKEFIAWLVKGGGPSSGAPPPSC [triple agonist of SEQ ID NO: 5]	42.1%	< 0.1%	< 0.1%
H[Aib]QGTFTSDYSKYLDEKRQKEFVQWLLDTC (bridge 16-20) [triple agonist of SEQ ID NO: 52]	44.1%	0.3%	7.5%
H[Aib]EGTFTSDYSIAMDEIHQKDFVDWLLAEC (bridge 16-20) [triple agonist of SEQ ID NO: 54]	30.6%	0.1%	1.4%
H[Aib]QGTFTSDVSSYLDGQAAKEFIAWLVKGC [triple agonist of SEQ ID NO: 1]	3.2%	< 0.1%	< 0.1%
[Acetyl(2-(4-imidazolyl))][Aib]QGTFTSDKSSYLDERAAQDFVQWLLDGGPSSGAPPPSS [triple agonist of SEQ ID NO: 38]	2.3%	–	–
H[Aib]QGTFTSDYSIAMDEIHQKDFVNWLLNTKC (bridge 16-20) [triple agonist of SEQ ID NO: 35]	7.5%	1.3%	< 0.1%
H[Aib]QGTFTSDYSKYLDEKRQKEFVNWLLAQKC (bridge 16-20) [triple agonist of SEQ ID NO: 34]	19.1%	0.6%	0.92%
Y[Aib]QGTFTSDYSKYLDEKRAKEFVQWLLDHHPSSGQPPPSC (bridge 16-20) [triple agonist of SEQ ID NO: 42]	33.9%	7.8%	206%
H[Aib]QGTFTSDKSKYLDECAAQDFVQWLLDGGPSSGAPPPS [triple agonist of SEQ ID NO: 41]	34.3%	< 0.1%	< 0.1%
H[Aib]QGTFTSDVSSYLLGQQQKEFIAWLVKGC [triple agonist of SEQ ID NO: 4]	8.5%	< 0.1%	< 0.1%
H[Aib]QGTFTSDYSIAMDEIHQKDFVNWLLAQC (bridge 16-20) [triple agonist of SEQ ID NO: 55]	27.1%	2.4%	0.7%
H[Aib]QGTFTSDYSKYLDEKRAKEFVQWLLDHHPSSGQPPPSC (bridge 16-20) [triple agonist of SEQ ID NO: 50]	67.4%	2.7%	50.5%
H[Aib]EGTFTSDYSIAMDEIHQKDFVNWLLAQC (bridge 16-20) [triple agonist of SEQ ID NO: 53]	161%	1.3%	8.4%
